Measured values taken from publication PMC9963752 (Proceedings of the National Academy of Sciences of the …, 2023).
No end group written: not given here.

Key:
[1] = system: GRPR; conditions: relative to PD176252 (methoxy group replaced by hydrogen); cited from earlier work
[2] = target: GRPR with alanine mutation of Q120^3.30 (human, UniProt P30550 1-384, alanine mutation of Q120^3.30); test: cell-based or functional assay
[3] = target: GRPR with alanine mutation of C93^2.57 (human, UniProt P30550 1-384, alanine mutation of C93^2.57); test: cell-based or functional assay

Row | GRP-induced calcium mobilization in transfected CHO cells: EC50 against WT-GRPR [2] [fold] | GRP-induced calcium mobilization in transfected CHO cells: EC50 against WT-GRPR [3] [fold] | Molecule | reduction for GRPR binding [1] [fold]
1 | – | – | C[C@@](Cc1c[nH]c2ccccc12)(NC(=O)Nc1ccc([N+](=O)[O-])cc1)C(=O)NCC1(c2ccccn2)CCCCC1 [PD168368] | 17
2 | 25 | 12 | VPLPAGGGTVLTKMYPRGNHWAVGHLM-NH2 [gastrin-releasing peptide] | –
